Test results taken from the supplement of paper PMC12764529.
± gives the half width of the 95% confidence interval.

Legend:
[1] = folding stability dG unfold from chymotrypsin proteolysis; higher = more stable
Summary of the method: (§1)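 Digests were run with trypsin and chymotrypsin at 11 concentrations in threefold dilutions, plus a no-protease condition, on designed mini-proteins in a PA-tagged cDNA display construct. The mini-proteins were under 80 residues, had no cysteine, and were kept only when AlphaFold2 dimer inter-PAE was above 15. After sequencing, Bayesian fitting of the counts gave K50, from which unfolding free energy was derived against a sequence-predicted unfolded-state K50 and a shared folded-state K50, per protease or combined.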

[2] = folding stability dG unfold (combined trypsin and chymotrypsin); higher = more stable
Summary of the method: as §1

[3] = folding stability dG unfold from trypsin proteolysis; higher = more stable
Summary of the method: as §1

Row | Sequence | folding stability dG unfold [1] [kcal/mol] | folding stability dG unfold [2] [kcal/mol] | folding stability dG unfold [3] [kcal/mol]
1 | SAGGSAGGSAGGKKYKPVKKIKVNGKTYTIIKKDGKYIIYDEKTKKKIVIKPGEKIKIKSAGGSAGGSAGGS [r10_559_TrROS_Hall] | 2.21 ± 0.034 | 1.83 ± 0.34 | 0.621 ± 0.045
2 | SAGMDDAEAEKLALEEAEKIAKEAGVPEIEVEVERTPSDRWRATIKFPKTGKTYTIELVGDEPSLVEKGSAG [r14_925_JUSTAS] | 1.27 ± 0.2 | 1.1 ± 0.14 | 1.01 ± 0.049
3 | SAGGSAGGSKAEIVSVEKLPEEGELYLVKIRVDGKTYTIAVPVGSTVTIDVPPGAEIEIRKLPSAGGSAGGS [r12_373_TrROS_Hall] | 2.619 ± 0.019 | 2.32 ± 0.046 | 1.62 ± 0.038
4 | SPFRLKIEIDEVGPAGQEIRVKLEIWSDNKPIEMEHTIKVPNGRLYRIRMNIYMPPDGNFQLNLDVYPLDSA [r9_255_TrROS] | 6.34 ± 0.37 | > 6 | 4.29 ± 0.23
5 | SMKIEKKDGKYVLTIKIKADSVEEVLNALKKLGIKFPPGVKEIKVVKVEEVNGEVYITIVVDTEEALKALSA [r9_820_TrROS_Hall] | 2.34 ± 0.09 | 2.6 ± 0.28 | 2.93 ± 0.13
6 | SAGGSAGGSMEEVEVFELEDGTLLVLVRVDGKEELIEIPLDDLKKLPNVKEVKIFPVKKVEKPSAGGSAGGS [r12_343_TrROS_Hall] | 1.43 ± 0.057 | 1.21 ± 0.086 | 0.803 ± 0.052
7 | SAGGSFTSEPNPNAPPDQPETITDPSKGVTTEVYFDTEKGTVSTTTTTTGDGTPTTSTSTTAIDPAAASAGG [r13_851_JUSTAS] | 1.37 ± 0.085 | 1.34 ± 0.18 | 1.33 ± 0.15
8 | SAGGMKIKDFEPVRVDENGMYVIDLKYEDPDNGNEYQVEFMIPNPPGNMHPITFTMKSPEDALDEILKSAGG [r13_26_TrROS] | -0.325 ± 0.28 | -0.445 ± 0.13 | -0.845 ± 0.27
9 | SAGGSAGGSAKPEKPEKVELKPKVKFVKVKVRLRFSFTLENGEKVEVELEATFLFVDGKLVSAGGSAGGSAG [r3_380_TrROS_Hall] | 5.31 ± 0.13 | 5.11 ± 0.2 | 3.97 ± 0.22
10 | SAGGSMVVVPVEVTVPPEELEQYLEDLRAAYEKPGVKVEILPVEREPIRDPAGRVEEVRAKATIKIVPSAGG [r13_707_JUSTAS] | 0.522 ± 0.042 | 0.207 ± 0.08 | -0.511 ± 0.21
11 | SAMKNMTPEEVAKLIEEEIRKLYPNAEVKVEVLDAPEDYLVLKVHVTVIEPEEEGEIREFPFLVVIDLSSAG [r14_187_TrMRF] | 3.31 ± 0.062 | 3.33 ± 0.09 | 3.47 ± 0.15
12 | SAGGSAGGSAGGSMKTVELSSEEEAKKIVEEAKKKGIPLTLVLTDPKTGNPKTFEFPLASAGGSAGGSAGGS [r4_188_JUSTAS] | -0.248 ± 0.41 | 0.0568 ± 0.48 | -0.213 ± 0.22
13 | SAGGSAGGSMTTSTEVVELSGGSSLTVEREYTVEEVKVDDKWETVTHEVVTTPDSTTVREIKPSAGGSAGGS [r12_128_JUSTAS] | 0.621 ± 0.068 | 0.526 ± 0.19 | 0.233 ± 0.063
14 | SASEDGYVVVEITIPIEIYMPMYKYSPDGKWKWEPHQMEIKLEITVQVKKDPEAADRAREFADRILDYISAG [r14_830_TrROS] | 3.59 ± 0.21 | 3.22 ± 0.23 | 2.7 ± 0.13
15 | SAGGSAGGSAGGKPTITITVELEDGYKATFEYNEETDKITVKIFNKNGELVEEFEFEIKSAGGSAGGSAGGS [r10_1044_TrROS_Hall] | 3.24 ± 0.21 | 2.87 ± 0.21 | 1.81 ± 0.12
16 | SAGGSAGGSAGGKKTIEIMIFYDPGDPERAKEKARDIANTLQARFPNVTVKITVFRFPNSAGGSAGGSAGGS [r10_223_TrROS] | 2.5 ± 0.048 | 2.25 ± 0.14 | 1.87 ± 0.074
17 | KKVKIEIEVIHPGPDGWVIRAKVKYPGNNKKKEKPFFFPNPKEFVKEIANELLPKNQLDDVDIEMYPLEEFS [r1_399_TrROS] | 0.686 ± 0.14 | 0.875 ± 0.15 | 0.973 ± 0.058
18 | SAGGSAGGSAGGPAVPVRTTLPDGRVVYYDPESGLTTIYVPETNETLVRDPATGTVTALSAGGSAGGSAGGS [r10_1057_JUSTAS] | 0.562 ± 0.04 | 0.938 ± 0.036 | 1.26 ± 0.027
19 | SAGGSGVPLKITKVEVVGDKVVLTFEVPESLGTLKLNLTFELGGKPVEVEAEFDPETKYAVVVVGGSAGGSA [r2_261_TrMRF] | 2.52 ± 0.061 | 2.49 ± 0.092 | 2.37 ± 0.051
20 | SAGGSAGGSAGMTVEDLEFDIPFESEEEAIEYLKKKLPKDYTIKPIGFEPENGKLKVKVTKKSAGGSAGGSA [r18_429_JUSTAS] | 0.789 ± 0.15 | 0.8 ± 0.3 | 0.485 ± 0.19
21 | SAPPNVWVSRTDPATGAVHAEDIPFPDGATAETVPDPATGTVAQSSDGPPAVLEEVRAALPPDASIEPASAG [r14_252_JUSTAS] | -0.245 ± 0.42 | -0.175 ± 0.2 | -0.555 ± 0.15
22 | SAGGSANPKPKIEIDKIYRMPDGQVHIPIEMERYDDDGQKETYPMDVTFNVPEGKPLTPNAIKDLISAGGSA [r15_836_TrROS] | -0.924 ± 0.24 | -0.693 ± 0.15 | -0.645 ± 0.064

Row | Sequence | folding stability dG unfold [1] [kcal/mol] | folding stability dG unfold [2] [kcal/mol] | folding stability dG unfold [3] [kcal/mol]
23 | SAGTIIIPMKEIREELGYPPGSPPSQMRDRIRDLIRRLYPRGIRPTDIDIESNGDNWYITVDIKLPPGASAG [r14_158_TrROS] | 2.76 ± 0.053 | 2.63 ± 0.11 | 2.26 ± 0.058
24 | SAGGSAGGSMPAGVLVTVTITITKPGKPETLDELDVTVAEGDLDALEEEFAEKYPGLEVTVVRSAGGSAGGS [r12_21_JUSTAS] | 1.92 ± 0.089 | 1.6 ± 0.1 | 0.818 ± 0.08
25 | SAGGSAGGGPRAVPVGELELVLGDLVVRVRFFRNPESDSVSVRVEVRPLPPISAEELARLGEEGSAGGSAGG [r6_177_TrMRF] | 3.52 ± 0.049 | 2.91 ± 0.15 | 1.67 ± 0.062
26 | SAGSIPLDIAKSLGGKTEVSSSPVPLGGGMTATLTTVTATLPDKIVTITITTLADPTVTEVTITTEPIKSAG [r5_323_JUSTAS] | 1.23 ± 0.039 | 1.14 ± 0.13 | 1.04 ± 0.068
27 | SAMKFKITEVKIISVEKKKDGKKTIVIEMKVEKGEEKITIEFDKNGKIKKVSVEKLPDGKTVRVTIEIDSAG [r14_189_TrROS_Hall] | 2.95 ± 0.087 | 2.52 ± 0.49 | 1.49 ± 0.28
28 | SAGGVTTPVTFTVPPSLDPEEAAERIAKELEEELKAASNKKVKVTVESVTPLPDGTLRVTVVITTEPSAGGS [r8_156_JUSTAS] | 3.14 ± 0.067 | 3.31 ± 0.086 | 3.76 ± 0.2
29 | SAGMTFEAEVKEKTIYIPEINNIIKIKIVNLKPPEGPIIPIIKIEFYVSENTTPEDIIKLLKELNIPVESAG [r5_486_TrMRF] | 2.11 ± 0.024 | 2.07 ± 0.099 | 2.09 ± 0.16
30 | SAGGSAGGSMSVTLVKVERDPANNTITVTIKLPSGETAFTKTVAPGTTVTITFPDGTVLTVTESAGGSAGGS [r12_441_JUSTAS] | 3.1 ± 0.035 | 3.07 ± 0.061 | 3.12 ± 0.078
31 | SAGGKKKPPKVKIVSIEVEVFKNENGEKFVKVKIKFEKTNKIITITVPPGMTLEELAKKLNIEIEKESAGGS [r16_676_TrROS_Hall] | 3.04 ± 0.041 | 2.72 ± 0.088 | 1.67 ± 0.048
32 | SAGMVKTEPDPNSDIVRRTFTVQVPVRIPPGEWRELTIEVPFDEVYGPGGVPVDPVSEEEIEAAIKALLSAG [r5_239_JUSTAS] | 1.15 ± 0.087 | 1.07 ± 0.096 | 0.966 ± 0.037
33 | SAGGSAGGSAGGKEYEVIEVEVNMTIEELKKLFPNVVEIKVEKNENGELKVTIIIKKDKSAGGSAGGSAGGS [r10_764_TrROS_Hall] | 2.5 ± 0.11 | 2.31 ± 0.12 | 1.92 ± 0.08
34 | SAGGMKIKAEDIVSVEVTYNEETNELTVKVTVRINGKEVTLTFPEGMSEEELKRLLEELIKKGELEIESAGG [r13_225_TrROS_Hall] | 2.96 ± 0.1 | 2.78 ± 0.11 | 2.19 ± 0.12
35 | SDTVHIPIDPNDPDEIKDLIKNLPPGWTVHIWWPDKNGEWPVVTIKVKPPPPPPIPPEDLPEEQRKEMKKSA [r9_1103_TrROS] | 0.718 ± 0.11 | – | 0.398 ± 0.24
36 | KVFSVDELRELAKKGKLKELLKKNKDVTIVVEEGSPEELKELKALPEVKEIKVVPKEDEEKIKKAKLVIKVS [r1_248_TrROS_Hall] | 0.0786 ± 0.69 | – | 0.312 ± 0.17
37 | SAGGSAGGSAGEIDKIKVEVEFEFPVRVKVGDKEYEFLVKVKYTIGPDGKIEVKSIELFPSAGGSAGGSAGG [r11_95_TrMRF] | 4.76 ± 0.38 | – | 3.69 ± 0.24
38 | SAGGMLTPEEIERLARELEEAIRRGDRERAEELLEKLEELLKQAEEEGDEELVERLKKLLERAKKALESAGG [r13_137_TrROS_Hall] | 2.99 ± 0.19 | – | 4.85 ± 0.55
39 | SAGKEIKIRIEVTRKVKNPETGEEVEEKEVVEITLSEEELKKGKSLEELAKELASKYPGAKVKIVEIESAGG [r19_110_TrROS_Hall] | 3.08 ± 0.49 | – | 4.43 ± 0.48
40 | SAGMTVEVEIELPPGMTEEERLEEVKALVEELARALLPPGWKVTVKEIEVEEKDGKLVVKVKIEIEPEESAG [r5_146_TrROS_Hall] | 2.99 ± 0.22 | – | 3.96 ± 0.28
41 | SAGGSAGGSAGGSFSVSVSYDPSTGNIVIRIDLPDGSTITITINPATGEISVSSSSSSSSAGGSAGGSAGGS [r10_127_TrMRF] | 3.83 ± 0.25 | – | 4.13 ± 0.28
42 | MPTIRVKIYRDGKLVRELELPAEEVEKMSEEELLEKVRELLEEEKGETYKVEVEIDGKKFTFEIKLPEKEES [r1_477_TrROS_Hall] | 4.8 ± 0.24 | – | 4.33 ± 0.39
43 | SAGGSMKTYKLESEEEIEKLIKELSPEKYIVGVKGNPDGTPVVYIFPKSEPEKLKKLGVKEIIPVKSAGGSA [r2_351_JUSTAS] | -0.109 ± 0.57 | – | -0.442 ± 0.46
